The source of these data is patent publication US7897142B2, “Peptide based-compounds” (GE Healthcare AS, priority 2004, dated 2011).

Positions of bridges follow the written chain, without caps; N, C: chain ends. Residues, ends and D or L forms follow the SMILES beside them. *: point of attachment. X1 = CC[N+]1=C(/C=C/C=C/C=C2/N(CCCCCC(=O)*)c3ccc(S(=O)(=O)O)cc3C2(C)C)C(C)(C)c2cc(S(=O)(=O)[O-])ccc21; X3 = C[N+]1=C(/C=C/C=C/C=C2/N(CCCCCC(=O)*)c3ccccc3C2(C)C)C(C)(C)c2cc(S(=O)(=O)[O-])ccc21; X2 = NC(=O)COCC(=O)NCCOCCOCCOCCN*

This series in a line: in vitro. The note with it: blood plasma. Here is the method:
Protein Binding Analysis of Dye Conjugates Containing 1, 2 and 4 Sulphonic Acid Groups
An analysis of protein binding of the dye conjugates of the invention was performed by an equilibrium dialysis and rate dialysis as described in the book “Protein-Ligand Interactions: Hydrodynamics and calorimetry”, edited by Stephen E. Harding and Babur Z. Chowdhry, Oxford University Press, published 2001, chapter 2 by Bent Honoré, Department of Medical Biochemisty, University of Aarhus.
Usually fraction unbound stands for the share of the substance not bound to proteins or other matrix. A lower fraction unbound goes with little free substance. Consider `C[N+]1=C(/C=C/C=C/C=C2/N(CCCCCC(=O)NCCCC[C@@H]3NC(=O)CSC[C@@H](C(=O)NCCOCCOCCOCCNC(=O)COCC(N)=O)NC(=O)[C@H](Cc4ccccc4)NC(=O)[C@@H]4CSSC[C@H](NC3=O)C(=O)N[C@@H](CCCNC(=N)N)C(=O)NCC(=O)N[C@@H](CC(=O)O)C(=O)N4)c3ccccc3C2(C)C)C(C)(C)c2cc(S(=O)(=O)[O-])ccc21` [Compound A, Cys2-6; c[CH2CO-Lys(Cy5 mono-SO3)-Cys-Arg-Gly-Asp-Cys-Phe-Cys]-(PEG)n-NH2 (n=1)] ({CH2CO}-K(X3)CRGDCFC-X2; disulfide 2-6; thioether N-8), for which the fraction unbound was 0.83.

`CC[N+]1=C(/C=C/C=C/C=C2/N(CCCCCC(=O)NCCCC[C@@H]3NC(=O)CSC[C@@H](C(=O)NCCOCCOCCOCCNC(=O)COCC(N)=O)NC(=O)[C@H](Cc4ccccc4)NC(=O)[C@@H]4CSSC[C@H](NC3=O)C(=O)N[C@@H](CCCNC(=N)N)C(=O)NCC(=O)N[C@@H](CC(=O)O)C(=O)N4)c3ccc(S(=O)(=O)O)cc3C2(C)C)C(C)(C)c2cc(S(=O)(=O)[O-])ccc21` [Compound B, Cys2-6; c[CH2CO-Lys(Cy5 bis-SO3)-Cys-Arg-Gly-Asp-Cys-Phe-Cys]-(PEG)n-NH2 (n=1)] ({CH2CO}-K(X1)CRGDCFC-X2; disulfide 2-6; thioether N-8) gave a fraction unbound of 0.79.

`CC[N+]1=C(/C=C/C=C/C=C2/N(CCCCCC(=O)NCCCC[C@@H]3NC(=O)CSC[C@@H](C(=O)NCCOCCOCCOCCNC(=O)COCC(N)=O)NC(=O)[C@H](Cc4ccccc4)NC(=O)[C@@H]4CSSC[C@H](NC3=O)C(=O)N[C@@H](CCCNC(=N)N)C(=O)NCC(=O)N[C@@H](CC(=O)O)C(=O)N4)c3ccc4c(S(=O)(=O)O)cc(S(=O)(=O)O)cc4c3C2(C)C)C(C)(C)c2c1ccc1c(S(=O)(=O)O)cc(S(=O)(=O)O)cc21` [Compound C]: the fraction unbound was 0.55.
